# Results taken from article PMC3538848.
# Assays:
# [1] = biological target: A/Perth/16/2009 (H3N2) hemagglutinin ectodomain (influenza A virus A/Perth/16/2009 (H3N2)); experiment: ITC
# [2] = biological target: A/Brisbane/10/2007 (H3N2) hemagglutinin ectodomain (influenza A virus A/Brisbane/10/2007 (H3N2)); experiment: ITC
# [3] = biological target: A/Panama/2007/1999 (H3N2) hemagglutinin ectodomain (influenza A virus A/Panama/2007/1999 (H3N2)); experiment: ITC
# [4] = biological target: A/Perth/16/2009 (H3N2) hemagglutinin ectodomain (influenza A virus A/Perth/16/2009 (H3N2)); experiment: BLI
# [5] = biological target: A/Brisbane/10/2007 (H3N2) hemagglutinin ectodomain (influenza A virus A/Brisbane/10/2007 (H3N2)); experiment: BLI
# [6] = biological target: A/Panama/2007/1999 (H3N2) hemagglutinin ectodomain (influenza A virus A/Panama/2007/1999 (H3N2)); experiment: BLI
# [7] = biological target: A/Perth/16/2009 (H3N2) hemagglutinin ectodomain (influenza A virus A/Perth/16/2009 (H3N2)); experiment: negative-stain EM, single-particle 3D reconstruction
# [8] = biological target: A/Solomon Islands/3/2006 (H1N1) hemagglutinin ectodomain (influenza A virus A/Solomon Islands/3/2006 (H1N1)); experiment: as above
# [9] = biological target: A/Texas/36/1991 (H1N1) hemagglutinin ectodomain (influenza A virus A/Texas/36/1991 (H1N1))
substance,measurement,setting,value
"C05 Fab (recombinant, for binding studies)",Kd,[1],26 nM
same,Kd,[2],10000 nM
same,Kd,[3],225 nM
same,Kd,[4],18 nM
same,Kd,[5],> 5000 nM
same,Kd,[6],720 nM
C05 Fab (Lys-C digestion of IgG),stoichiometry N,[7],3
same,stoichiometry N,[8],3
C05 IgG (antibody),"MIC, hemagglutination inhibition (HAI)",[9],> 100 µg/mL
